# Results from paper PMC11024197.
# Values joined by “and” are separate entries in the source; they are usually repeats but may differ in a detail not shown here. Identical values can stand only once.
# Tests used:
# [1] = target: PEX14 NTD (1-104) (human) (UniProt O75381); experiment: ITC; PEX14 (1-104) (20-60 uM, concentration corrected with the fit) in the cell, peptide or fragment in the syringe; 25 °C, 20 mM Tris pH 7.5, 50 mM NaCl; one-site binding model; single runs of triplicates and their averages
# [2] = target: PEX14 NTD (1-104) (human) (UniProt O75381); experiment: ITC; PEX14 NTD (1-104) (20-60 µM) in the cell, titrated with PEX5 W peptides or W0 (0.4-0.6 mM), PEX13 FxxxF (0.46 mM) or PEX13 SH3-CTR (1 mM); 25 °C; 20 mM Tris pH 7.5, 50 mM NaCl; one-site binding model; PEX14 concentration corrected with the fit; triplicates
# PEX13 SH3 domain (human) [3] = target: PEX13 SH3 domain (human) (UniProt Q92968); experiment: ITC; PEX13 SH3 at 35-48 µM titrated with PEX5 15-mer peptides or PEX5 1-76 (0.6-0.7 mM) or PEX13 350-403 (0.9-1 mM); 25 °C; 20 mM Tris pH 7.5, 50 mM NaCl; one-site model; triplicates
# PEX13 SH3 domain (human) [4] = target: PEX13 SH3 domain (human) (UniProt Q92968); experiment: ITC; PEX13 SH3 (35-48 uM) in the cell, peptide or fragment in the syringe; 25 °C, 20 mM Tris pH 7.5, 50 mM NaCl; one-site binding model; single runs of triplicates and their averages
# [5] = target: PEX14 NTD (1-104) (human) (UniProt O75381); experiment: ITC; PEX14 (1-104) at 20-60 µM titrated with PEX5 W peptides or W0 (0.4-0.6 mM), PEX13 FxxxF (0.46 mM) or PEX13 SH3-CTR (1 mM); 25 °C; 20 mM Tris pH 7.5, 50 mM NaCl; one-site model; PEX14 concentration corrected with the fit; triplicates
# Sequence of PEX14 NTD (1-104) (human) (O75381 1-104): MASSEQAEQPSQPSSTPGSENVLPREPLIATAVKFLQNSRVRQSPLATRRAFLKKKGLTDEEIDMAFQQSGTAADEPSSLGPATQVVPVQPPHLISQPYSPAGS
substance,measurement,setting,value
PEX5 W2 peptide,stoichiometry N,[1],1 sites
same,stoichiometry N,[2],1
PEX5 W3 peptide,stoichiometry N,[1],1 sites
same,stoichiometry N,[2],1
PEX5 W4 peptide,stoichiometry N,[1],1 sites
same,stoichiometry N,[2],1
"PEX13 FF/W4 (FxxxF core motif FESVF replaced with WYDEY), as titrated onto the SH3 domain (domain or fragment)",Kd,PEX13 SH3 domain (human) [3],6 µM
PEX13 FF/W4 (FxxxF fragment with the core motif FESVF replaced by WYDEY) (domain or fragment),Kd,PEX13 SH3 domain (human) [4],6.48 µM and 6.11 µM and 6.59 µM
same,stoichiometry N,PEX13 SH3 domain (human) [4],1 sites
PEX13 FxxxF peptide (residues 350-403) (from UniProt Q92968 350-403) (domain or fragment),Kd,PEX13 SH3 domain (human) [3],27 µM
same,Kd,[5],2.8 µM
same,stoichiometry N,[5],1
PEX13 SH3-CTR (residues 261-403) (from UniProt Q92968 261-403) (domain or fragment),Kd,[5],5.4 µM
same,stoichiometry N,[5],1
